Laboratory results: article PMC9758055

What was measured:
[1] = molecular target: SNAPC1;SNAPC3;SNAPC4 1-516;SNAPC5;TBP;TFIIB;TFIIA (Homo sapiens;Homo sapiens;Homo …, UniProt Q16533;Q92966;Q5SXM2;O75971;P20226;Q00403;P52655;P52657 …, ||||||); assay: cryo-EM; local map of SNAPc-containing upstream complex; GraFix; EMSA: 250 mM NaCl, 50 mM HEPES pH 7.9, 20% glycerol, 1 mM TCEP, room temperature 15 min; 20 pM SNAPc, 5 pM DNA, 25 pM TBP/TFIIB (units as printed). Cryo-EM: ass; conditions: protein: recombinant;recombinant;recombinant;recombinant;recombinant;recombinant;recombinant; tags: ;;;;;;; copies: 1;1;1;1;1;1;1;1; blunt
[2] = molecular target: SNAPC1;SNAPC3;SNAPC4 1-516;SNAPC5;TBP;TFIIB;TFIIA;TFIIF;RNA polymerase II (Homo sapiens;Homo sapiens;Homo …, UniProt Q16533;Q92966;Q5SXM2;O75971;P20226;Q00403;P52655;P52657;P35269;P13984;A0A8D1DPV6 …, ||||||||); assay: cryo-EM; closed complex; GraFix; TFIIE added in assembly; Zn2+ in SNAPC3; EMSA: 250 mM NaCl, 50 mM HEPES pH 7.9, 20% glycerol, 1 mM TCEP, room temperature 15 min; 20 pM SNAPc, 5 pM DNA, 25 pM TBP/TFIIB (units as printed). Cryo-EM: ass; conditions: tags: ;;;;;;;;; copies: 1;1;1;1;1;1;1;1;1;1;1;1;1;1;1;1;1;1;1;1;1;1; blunt
[3] = molecular target: SNAPC1;SNAPC2;SNAPC3;SNAPC4 full length;SNAPC5 (Homo sapiens;Homo sapiens;Homo …, UniProt Q16533;Q13487;Q92966;Q5SXM2;O75971 1-368;1-334;1-411;1-1469;1-98, ||||); assay: EMSA; SNAPc-FL alone; EMSA: 250 mM NaCl, 50 mM HEPES pH 7.9, 20% glycerol, 1 mM TCEP, room temperature 15 min; 20 pM SNAPc, 5 pM DNA, 25 pM TBP/TFIIB (units as printed). Cryo-EM: ass; conditions: protein: recombinant;recombinant;recombinant;recombinant;recombinant; tags: ;;;N-terminal StrepTwin, C-terminal His;; copies: 1;1;1;1;1; blunt
[4] = molecular target: SNAPC1;SNAPC3;SNAPC4 1-516;SNAPC5 (Homo sapiens;Homo sapiens;Homo …, UniProt Q16533;Q92966;Q5SXM2;O75971 1-368;1-411;1-516;1-98, |||); assay: EMSA; SNAPc-core alone; EMSA: 250 mM NaCl, 50 mM HEPES pH 7.9, 20% glycerol, 1 mM TCEP, room temperature 15 min; 20 pM SNAPc, 5 pM DNA, 25 pM TBP/TFIIB (units as printed). Cryo-EM: ass; conditions: protein: recombinant;recombinant;recombinant;recombinant; tags: ;;;; copies: 1;1;1;1; blunt
[5] = molecular target: SNAPC1;SNAPC2;SNAPC3;SNAPC4 full length;SNAPC5;TBP;TFIIB (Homo sapiens;Homo sapiens;Homo …, UniProt Q16533;Q13487;Q92966;Q5SXM2;O75971;P20226;Q00403 …, ||||||); assay: EMSA; SNAPc-FL with TBP and TFIIB; EMSA: 250 mM NaCl, 50 mM HEPES pH 7.9, 20% glycerol, 1 mM TCEP, room temperature 15 min; 20 pM SNAPc, 5 pM DNA, 25 pM TBP/TFIIB (units as printed). Cryo-EM: ass; conditions: protein: recombinant;recombinant;recombinant;recombinant;recombinant;recombinant;recombinant; tags: ;;;N-terminal StrepTwin, C-terminal His;;;; copies: 1;1;1;1;1;1;1; blunt
[6] = molecular target: SNAPC1;SNAPC3;SNAPC4 1-516;SNAPC5;TBP;TFIIB (Homo sapiens;Homo sapiens;Homo …, UniProt Q16533;Q92966;Q5SXM2;O75971;P20226;Q00403 1-368;1-411;1-516;1-98;1-339;1-316, |||||); assay: EMSA; SNAPc-core with TBP and TFIIB; EMSA: 250 mM NaCl, 50 mM HEPES pH 7.9, 20% glycerol, 1 mM TCEP, room temperature 15 min; 20 pM SNAPc, 5 pM DNA, 25 pM TBP/TFIIB (units as printed). Cryo-EM: ass; conditions: protein: recombinant;recombinant;recombinant;recombinant;recombinant;recombinant; tags: ;;;;;; copies: 1;1;1;1;1;1; blunt

Measured: binding result

B1: engineered U5 promoter cryo-EM scaffold (96 bp) (dsDNA)
DNA 1: AGTAGACACCATCAGTGTACTAGGACCCGAAAATTGAGTTACAGAAGTAACTGGTATACTCTGGTTTCTCTTCAGATCGCATAAAACCTGGCAGGG
DNA 2: CCCTGCCAGGTTTTATGCGATCTGAAGAGAAACCAGAGTATACCAGTTACTTCTGTAACTCAATTTTCGGGTCCTAGTACACTGATGGTGTCTACT
binds: [1] | [2]

B2: U1 promoter EMSA fragment (76 bp) (dsDNA)
DNA 1: GAAACGTTGTGCCTCTGCCCCGACACAGCCTCATACGCCTCACTCTTTACACACACGGTCACTTGCCCCGCGCACT
DNA 2: AGTGCGCGGGGCAAGTGACCGTGTGTGTAAAGAGTGAGGCGTATGAGGCTGTGTCGGGGCAGAGGCACAACGTTTC
binds: [3] | [4] | [5] | [6]

B3: U5 promoter EMSA fragment (75 bp) (dsDNA)
DNA 1: ACCAGTTACTTCTGTAACTCAATTTTCGGGTAACTGCAATTCCTAGTACACTGATGGTGTCTACTAATCCCAAGG
DNA 2: CCTTGGGATTAGTAGACACCATCAGTGTACTAGGAATTGCAGTTACCCGAAAATTGAGTTACAGAAGTAACTGGT
binds: [3] | [4] | [5] | [6]
